# US8399414B2, “Analgesics” (NRL Pharma, Inc., priority 2002, dated 2013)
# B1: lactoferrin (protein, UniProt P24627 20-708, looked up)
# Lactotransferrin: APRKNVRWCTISQPEWFKCRRWQWRMKKLGAPSITCVRRAFALECIRAIAEKKADAVTLDGGMVFEAGRDPYKLRPVAAEIYGTKESPQTHYYAVAVVKKGSNFQLDQLQGRKSCHTGLGRSAGWIIPMGILRPYLSWTESLEPLQGAVAKFFSASCVPCIDRQAYPNLCQLCKGEGENQCACSSREPYFGYSGAFKCLQDGAGDVAFVKETTVFENLPEKADRDQYELLCLNNSRAPVDAFKECHLAQVPSHAVVARSVDGKEDLIWKLLSKAQEKFGKNKSRSFQLFGSPPGQRDLLFKDSALGFLRIPSKVDSALYLGSRYLTTLKNLRETAEEVKARYTRVVWCAVGPEEQKKCQQWSQQSGQNVTCATASTTDDCIVLVLKGEADALNLDGGYIYTAGKCGLVPVLAENRKSSKHSSLDCVLRPTEGYLAVAVVKKANEGLTWNSLKDKKSCHTAVDRTAGWNIPMGLIVNQTGSCAFDEFFSQSCAPGADPKSRLCALCAGDDQGLDKCVPNSKEKYYGYTGAFRCLAEDVGDVAFVKNDTVWENTNGESTADWAKNLNREDFRLLCLDGTRKPVTEAQSCHLAVAPNHAVVSRSDRAAHVKQVLLHQQALFGKNGKNCPDKFCLFKSETKNLLFNDNTECLAKLGGRPTYEEYLGTEYVTAIANLKKCSTSPLLEACAFLTR
# notes: bovine lactoferrin extracted from milk (Tatua Milk Industry Co., Ltd., purity 87%)
# Assays:
# rodent animals [1] = assay: hot plate test; format: in vivo; conditions: administration before test
# Description: (§1) The inventors carried out, using rodent animals, animal tests related to pain: (1) hot plate test, (2) formalin test and (3) acetic acid rising test to examine the influences of lactoferrin administration on the animals' sensation of pain.
# beagles [2] = assay: single dose acute toxicity study (GLP), oral; format: in vivo; conditions: maximum dose of 5 g/kg
# Description: (§2) In toxicity studies in beagles and rats carried out by the inventors in accordance with GLP, lactofferin extracted from milk (manufactured by Tatua Milk Industry Co., Ltd., New Zealand, purity: 87%) was non-toxic after oral administration at physical limit doses. […] Accordingly, lactoferrin is probably non-toxic after oral administration and has almost ideal characteristics as a therapy for cancer. It is likely that lactoferrin defends opportunistic infections frequently occurring in immunocompromised hosts such as patients with cancer, prevents carcinogenesis, inhibits the growth of cancer, prevents metastasis, and destructs a metastatic lesion. Further, it is probably highly safe when administered to patients declining in immunopotency, such as aged patients.
# rats [3] = assay: single dose acute toxicity study (GLP), oral; format: in vivo; conditions: maximum dose of 5 g/kg
# Description: as §2
# male Wistar rats [4] = assay: formalin test, intrathecal administration, comparison with morphine (Example 12); format: in vivo; conditions: 30 minutes before formalin, bLF 0.1 to 100 μg/rat, rhLF 100 μg/rat, morphine 10 μg/rat, FIGS. 15
# Procedure: Groups consisting of male Wistar rats 6 weeks of age (n=6 to 8) were intrathecally administered 0.1 to 100 μg/rat of bovine lactoferrin (bLF), 100 μg/rat of recombinant human lactoferrin (rhLF) or 10 μg/rat of morphine (Mor) 30 minutes before formalin was injected into their foot pads. The results are shown in FIGS. 15: the number of the foot-lifting times in the phase 1 pain (left graph) and the number of the foot-lifting times in the phase 2 pain (right graph).
# protease = assay: resistance of lactoferrin to protease; format: in vitro ADME
# Description: (§3) Preferably the composition of this invention, as a composition for an oral formulation, is made into an enteric-coated dosage form. The inventors of this invention hypothesize that there exists a structure, which can be referred to as a lactoferrin sensor, on the mucosa of the intestinal tract, as described in detail in International Patent Application, PCT/JP01/10212 (WO02/41912).
# pepsin = format: in vitro ADME
# Description: as §3
# male Wistar rats [5] = assay: ethanol and restriction stress gastric ulcer (Example 4); format: in vivo, rat; conditions: 1% bovine lactoferrin in feed for 8 weeks; relative to control group
# Procedure: Sixteen male Wistar rats (6 weeks of age) were randomly divided into two groups, and the rats in one group (n=8) were fed standard feed powder for rodent animals (CLEA JAPAN, INC., CE-2) while those in the other group (n=8) fed CE-2 with 1% bovine lactoferrin added thereto for 8 weeks. Eight weeks later, the rats were deprived of food for one night, administered orally and forcibly 5 ml/kg weight of 50% ethanol, and subsequently inflicted with restriction stress for 2 hours. Two 2 hours later, the stomach of each rat was excised and “number of hemorrhagic spots”, “area of hemorrhage”, “number of ulcers”, “number of large ulcers” and “areas of ulcers” on the gastric mucosa were measured.
# male Wistar rats [6] = assay: formalin test, oral administration in feed for 4 weeks (Example 2); format: in vivo, rat; conditions: 1% bovine lactoferrin in feed for 4 weeks
# Procedure: (§4) Formalin test is a typical pain sensation stimulating test. It is a method for determining an analgesic effect of drugs in which 50 μl of 2% formalin is injected into a foot pad of each experimental rat and the foot-lifting and foot-licking behavior of the rats is observed.
# Fourteen male Wistar rats (6 weeks of age) were randomly divided into two groups, and the rats in one group were fed standard feed powder for rodent animals (Clea Japan, Inc., CE-2) while those in the other group fed CE-2 with 1% bovine lactoferrin added thereto for 4 weeks. Four weeks later, formalin solution was injected into the foot pad of each rat, and the foot-lifting and foot-licking behavior of each rat due to the pain sensation stimulation was measured for one hour (FIGS. 3 and 4).
# [7] = system: adjuvant arthritis models; assay: adjuvant arthritis, Flexion test after a single oral dose (Example 7); format: in vivo, rat
# Procedure: On day 25 after the adjuvant treatment, the rats were divided into 6 groups and administered once BSA (bovine serum albumin) or LF (lactoferrin), and after 3 hours, the pain index was measured for each group by Flexion test in the manner as in Example 5. Thirty minutes before Flexion test, saline solution, morphine or naloxone was administered subcutaneously.
# [8] = system: adjuvant arthritis rat model; format: in vivo; conditions: LF 100 mg/kg oral sid or bid, Dex 1 mg/kg i.p. sid
# Procedure: The preventive/therapeutic effects against arthritis of orally administered lactoferrin (LF) and the mechanism of the action were examined using an adjuvant arthritis rat model as an animal model with rheumatoid arthritis.
# Evaluation of the above described effects was performed by measuring the change in volume of foot due to swelling, Flexion test (pain in joints caused in flexion and extension test), and the production of cytokine by the stimulation of lipopolysaccharide.
# Adjuvant was injected subcutaneously into the sole of the right hind leg of each rat, and the volume of the feet was measured once a day to obtain the swelling rate of the feet of both hind legs. The test substance was suspended in 0.5% CMC and administered once or twice a day for 18 consecutive days starting from the first dose 3 hours before adjuvant treatment (day 0). On 4th and 10th days after treating with adjuvant, the swollen tarsal joint of each rat was extended 10 times and the number of times each rat screamed due to the stimulation of pain sensation caused by flexing and extending its tarsal joint was measured.
# male Wistar rats [9] = assay: formalin test, comparison with diclofenac (Example 3); format: in vivo, rat; conditions: i.p. 30 minutes before formalin
# Procedure: Male Wistar rats 6 weeks of age were used. The rats in one group were given bovine lactoferrin and those in another group were given a control drug, diclofenac, by intraperitoneal administration 30 minutes before injecting formalin into their foot pads. Their responses to pain are shown in FIG. 5: the phase 1 pain (left) and the phase 2 pain (right).
# Lactoferrin and diclofenac were administered intraperitoneally 30 minutes before formalin injection both in the control group (n=4) and the diclofenac group (n=5). The pain inhibiting effect of diclofenac disappeared about 50 minutes after formalin injection, whereas the pain inhibiting effect of lactoferrin lasted long and even 60 minutes after formalin injection.
# [10] = system: adjuvant arthritis rat model; assay: adjuvant arthritis rat model, treatment in chronic phase (Example 6); format: in vivo
# Procedure: Subsequently after Example 5, lactoferrin (100 mg/kg) was orally administered for 7 consecutive days starting from day 19 after the adjuvant treatment, when the adjuvant treated rats were in the chronic phase of inflammation.
# TNF-α production = assay: LPS-stimulated cytokine production in rats with adjuvant arthritis, ELISA (Example 8); format: in vivo, rat; conditions: LPS 1 mg/kg i.p., blood 3 hours later
# Procedure: (§5) It is known that in adjuvant arthritis models, the production of cytokines due to the LPS stimulation increases considerably, compared with normal animals, because the reactivity of their immune system increases due to chronic inflammation.
# (§6) One mg/kg of LPS was administered intraperitoneally to rats with adjuvant arthritis to stimulate the production of cytokines. Three hours after the LPS administration, the blood was collected from each rat and the quantities of cytokines were measure by ELISA. The groups to be administered a single dose of lactoferrin (groups B and C) were given orally 0.5% CMC once daily until the experiment day to allow the experiment conditions to match those of the group to be administered lactoferrin for 19 consecutive days. The group to be administered lactoferrin for 19 consecutive days (group E) was administered orally lactoferrin once daily from the very day when treated with adjuvant. The design of the experiment is shown in Table 2 and the results in FIG. 14.
# IL-10 production = assay: as above; format: in vivo, rat; conditions: LPS 1 mg/kg i.p., blood 3 hours later
# Procedure: as §5, §6
# beagles [11] = assay: subacute toxicity study, dosing period of 3 months, oral; format: in vivo; conditions: maximum dose of 2 g/kg
# Description: as §2
# rats [12] = assay: as above; format: in vivo; conditions: maximum dose of 2 g/kg
# Description: as §2
# rodent animals [13] = assay: acetic acid rising test; format: in vivo; conditions: administration before test
# Description: as §1
# male Wistar rats [14] = assay: formalin test, intraperitoneal administration (Example 1); format: in vivo, rat
# Procedure: as §4
# Ten male Wistar rats (6 weeks of age) were randomly divided into two groups, and one hour before injecting formalin, the rats in the control group were given saline solution (1 ml/kg) and those in the lactoferrin group were given bovine lactoferrin dissolved in saline solution (100 ml/kg, Tatua Milk Industry Co., Ltd., purity: 87%) by intraperitoneal injection. After one hour, formalin solution was injected into the foot pad of each rat, and the foot-lifting and foot-licking behavior of each rat due to the stimulation of the pain sensation was measured for one hour (FIGS. 1 and 2).
# male Wistar rats [15] = assay: formalin test, enhancement of analgesic effect of morphine (Example 13); format: in vivo; conditions: 10 ng/rat bovine lactoferrin with 1 to 10,000 ng/rat morphine; several 10- to 100-fold or more; FIG. 16
# Procedure: The lactoferrin's effect of enhancing the analgesic effect of morphine was examined by administering 1 to 10,000 ng/rat of morphine concurrently with 10 ng/rat of bovine lactoferrin (▪) or alone (●) in the same manner as in Example 12. The results are shown in FIG. 16: the number of the foot-lifting times in the phase 1 pain (left graph) and the number of foot-lifting time in the phase 2 pain (right graph).
# [16] = lactoferrin orally for 19 consecutive days
# [17] = single oral dose of lactoferrin
molecule,measurement,setting,value
B1,sensation of pain against the stimulation,rodent animals [1],weakened sensation of pain
same,"abnormal findings, single dose acute toxicity",beagles [2],no abnormal findings were observed
same,"abnormal findings, single dose acute toxicity",rats [3],no abnormal findings were observed
same,phase 1 pain (number of foot-lifting times),male Wistar rats [4],inhibits
same,phase 2 pain (number of foot-lifting times),male Wistar rats [4],inhibits
same,resistance to protease,protease,significantly resistive
same,sensitivity to pepsin,pepsin,highly sensitive
same,"area of the hemorrhage per rat, decreased to",male Wistar rats [5],79%
same,"area of the ulcers, decreased to",male Wistar rats [5],about 30%
same,"number of the large ulcers, decreased to",male Wistar rats [5],50%
same,"number of the ulcers, decreased to",male Wistar rats [5],50%
same,"number, per rat, of hemorrhagic spots on the gastric mucosa, decreased to",male Wistar rats [5],87%
same,foot-licking behavior,male Wistar rats [6],significantly decreased
same,phase 2 pain sensation stimulation induced by formalin,male Wistar rats [6]; FIG. 4,significantly inhibiting
same,stimulation of the pain sensation (foot-lifting),"male Wistar rats [6]; vs control P<0.0001, FIG. 3",weakened the sensitivity to pain
same,analgesic effect of lactoferrin with naloxone,[7]; LF 100 mg/kg oral plus naloxone 3 mg/kg s.c. 30 mins before Flexion test,completely inhibited by naloxone
same,sensitivity to pain in the joints (Flexion test),"[7]; single oral dose 10 to 100 mg/kg, 3 hrs before test, day 25 after adjuvant, FIG. 13",inhibited the sensitivity to pain in the joints dose-dependently
same,swelling rate of the feet,"[8]; 18 consecutive days from day 0, FIG. 10",significantly lower
same,"Flexion test (screams, pain index)","[8]; days 4 and 10 after adjuvant, FIG. 11",neither screamed nor showed pain sensation reaction
same,inhibition of phase 1 pain,male Wistar rats [9]; FIG. 5,inhibited dose-dependently
same,inhibition of phase 2 pain,male Wistar rats [9]; FIG. 5,inhibited dose-dependently
same,duration of pain inhibiting effect after formalin injection,male Wistar rats [9]; FIGS. 7 and 8,≥ 60 min
same,pain index in Flexion test,"[10]; 7 consecutive days from day 19, LF vs control from day 1, Dex vs lactoferrin groups, FIG. 12C",significantly lower
same,swelling of feet,"[10]; 7 consecutive days from day 19 after adjuvant, LF 100 mg/kg oral (day 7 vs control), Dex 1 mg/kg (from day 1)",significantly lower
same,TNF-α production,TNF-α production; [16],significant inhibition
same,TNF-α production,TNF-α production; [17],significant inhibition
same,IL-10 production,IL-10 production; [16],increase
same,IL-10 production,IL-10 production; [17],increase
same,"abnormal findings, subacute toxicity",beagles [11],no abnormal findings were observed
same,"abnormal findings, subacute toxicity",rats [12],no abnormal findings were observed
same,sensation of pain against the stimulation,rodent animals [13],weakened sensation of pain
same,foot-lifting behavior,"male Wistar rats [14]; i.p. 100 ml/kg one hour before formalin, measured for one hour, vs control P<0.0001, FIG. 1",significantly decreased
same,number of times rats lifted their feet within 50 minutes after formalin injection (phase 2 pain),"male Wistar rats [14]; i.p. one hour before formalin, vs control, FIG. 2",more significantly decreased
same,foot-licking behavior,"male Wistar rats [14]; i.p., higher doses, data not shown",significantly decreased
same,"enhancement of the analgesic effect of morphine, phase 1 pain",male Wistar rats [15],10- to 100 fold
same,"enhancement of the analgesic effect of morphine, phase 2 pain",male Wistar rats [15],10- to 100 fold
